Laboratory results taken from the Immune Epitope Database (IEDB).
pIC50, pKd: −log10 of the molar value.

Tests used:
HLA-A*26:02 = assay: IEDB peptide-MHC binding, purified MHC/direct/fluorescence; filed as Kd, often an IC50 or EC50 that approximates it; ≥ and ≤ were set here for values at or beyond the usual limits of such assays
HLA-A*26:01 [1] = assay: as above; details: source organism: Influenza A virus (A/goose/Hong Kong/8/1976(H1N1))
HLA-B*08:01 [2] = assay: IEDB peptide-MHC binding, purified MHC/competitive/fluorescence; ≥ and ≤ were set here for values at or beyond the usual limits of such assays; details: source organism: Zaire ebolavirus
HLA-A*24:02 = assay: as above; details: source organism: Zaire ebolavirus
HLA-A*02:01 [3] = assay: as above; details: source organism: Zaire ebolavirus
HLA-B*15:01 [4] = assay: as above; details: source organism: Zaire ebolavirus
HLA-B*07:02 [5] = assay: as above; details: source organism: Zaire ebolavirus
HLA-A*26:01 [6] = assay: IEDB peptide-MHC binding, purified MHC/competitive/fluorescence; filed as Kd, often an IC50 or EC50 that approximates it; ≥ and ≤ were set here for values at or beyond the usual limits of such assays; details: source organism: Zaire ebolavirus
HLA-B*39:01 = assay: as above
HLA-B*27:03 = assay: as above; details: source organism: Zaire ebolavirus
HLA-A*69:01 [7] = assay: as above; details: source organism: Zaire ebolavirus
HLA-A*03:01 = assay: IEDB peptide-MHC binding, purified MHC/direct/fluorescence; filed as Kd, often an IC50 or EC50 that approximates it; ≥ and ≤ were set here for values at or beyond the usual limits of such assays; details: source organism: Zaire ebolavirus
HLA-B*08:01 [8] = assay: as above
HLA-B*46:01 = assay: as above; details: source organism: Zaire ebolavirus
HLA-A*11:01 = assay: as above
HLA-B*27:05 = assay: as above; details: source organism: Zaire ebolavirus
HLA-B*57:01 = assay: as above
HLA-A*01:01 = assay: as above
HLA-A*68:02 = assay: as above
HLA-B*44:02 = assay: as above; details: source organism: Zaire ebolavirus
HLA-A*23:01 = assay: as above; details: source organism: Zaire ebolavirus
HLA-A*29:02 = assay: as above; details: source organism: Zaire ebolavirus
HLA-B*18:01 = assay: as above
HLA-B*07:02 [9] = assay: as above
HLA-C*14:02 = assay: as above
HLA-A*02:06 = assay: IEDB peptide-MHC binding, purified MHC/competitive/fluorescence; filed as Kd, often an IC50 or EC50 that approximates it; ≥ and ≤ were set here for values at or beyond the usual limits of such assays; details: source organism: Vibrio vulnificus YJ016
HLA-A*02:01 [10] = assay: as above; details: source organism: Vibrio vulnificus YJ016
HLA-A*02:03 = assay: as above; details: source organism: Vibrio vulnificus YJ016
HLA-A*30:01 = assay: as above; details: source organism: Vibrio vulnificus YJ016
HLA-B*07:02 [11] = assay: as above; details: source organism: Vibrio vulnificus YJ016
HLA-B*58:01 = assay: IEDB peptide-MHC binding, purified MHC/direct/fluorescence; filed as Kd, often an IC50 or EC50 that approximates it; ≥ and ≤ were set here for values at or beyond the usual limits of such assays; details: source organism: Vibrio vulnificus YJ016
HLA-A*31:01 = assay: as above; details: source organism: Vibrio vulnificus YJ016
HLA-A*02:11 = assay: as above; details: source organism: Vibrio vulnificus YJ016
HLA-A*26:03 = assay: as above; details: source organism: Vibrio vulnificus YJ016
HLA-A*69:01 [12] = assay: as above; details: source organism: Vibrio vulnificus YJ016
HLA-B*15:17 = assay: as above; details: source organism: Vibrio vulnificus YJ016
HLA-B*51:01 = assay: as above
HLA-B*15:01 [13] = assay: as above; details: source organism: Yellow fever virus 17D
[14] = source organism: Zaire ebolavirus
[15] = source organism: Vibrio vulnificus YJ016
[16] = source organism: Giardia lamblia ATCC 50803

Sequence: LSPGMMMGM
- pKd (HLA-A*26:02; source organism: Influenza B virus (B/Beijing/184/93)): 6.50
- pKd (HLA-A*26:01 [1]): ≤ 4.70

Sequence: RLAKLTEAI
- pIC50 (HLA-B*08:01 [2]): ≤ 3.74
- pIC50 (HLA-A*24:02): 5.85
- pIC50 (HLA-A*02:01 [3]): 4.83
- pIC50 (HLA-B*15:01 [4]): 4.32
- pIC50 (HLA-B*07:02 [5]): ≤ 3.66
- pKd (HLA-A*26:01 [6]): ≤ 4.70
- pKd (HLA-B*39:01; [14]): ≤ 4.70
- pKd (HLA-B*27:03): ≤ 4.70
- pKd (HLA-A*69:01 [7]): ≤ 4.70
- pKd (HLA-A*03:01): ≤ 4.70
- pKd (HLA-B*08:01 [8]; [14]): 4.88
- pKd (HLA-B*46:01): ≤ 4.70
- pKd (HLA-A*11:01; [14]): ≤ 4.70
- pKd (HLA-B*27:05): ≤ 4.70
- pKd (HLA-B*57:01; [14]): ≤ 4.70
- pKd (HLA-A*01:01; [14]): ≤ 4.70
- pKd (HLA-A*68:02; [14]): ≤ 4.70
- pKd (HLA-B*44:02): ≤ 4.70
- pKd (HLA-A*23:01): ≤ 4.70
- pKd (HLA-A*29:02): ≤ 4.70
- pKd (HLA-B*18:01; [14]): ≤ 4.70
- pKd (HLA-B*07:02 [9]; [14]): ≤ 4.70

Sequence: DTITNVTTM
- pKd (HLA-A*26:02; source organism: West Nile virus strain PTRoxo): ≥ 9.00
- pKd (HLA-C*14:02; source organism: West Nile virus): 5.78

Sequence: LLRRRPYPL
- pKd (HLA-A*02:06): 5.69
- pKd (HLA-A*02:01 [10]): 6.98
- pKd (HLA-B*39:01; [15]): ≤ 4.70
- pKd (HLA-A*02:03): 8.68
- pKd (HLA-A*30:01): 6.36
- pKd (HLA-B*07:02 [11]): 6.69
- pKd (HLA-A*26:02; [15]): ≤ 4.70
- pKd (HLA-B*58:01): ≤ 4.70
- pKd (HLA-B*08:01 [8]; [15]): 8.52
- pKd (HLA-A*31:01): ≤ 4.70
- pKd (HLA-A*11:01; [15]): ≤ 4.70
- pKd (HLA-A*02:11): ≥ 9.00
- pKd (HLA-B*57:01; [15]): ≤ 4.70
- pKd (HLA-A*01:01; [15]): ≤ 4.70
- pKd (HLA-A*68:02; [15]): ≤ 4.70
- pKd (HLA-B*18:01; [15]): ≤ 4.70
- pKd (HLA-A*26:03): ≤ 4.70
- pKd (HLA-A*69:01 [12]): ≤ 4.70
- pKd (HLA-B*15:17): ≤ 4.70

Sequence: AAVSHLTTL
- pIC50 (HLA-A*24:02): 5.65
- pIC50 (HLA-A*02:01 [3]): 5.98
- pIC50 (HLA-B*15:01 [4]): 4.78
- pIC50 (HLA-B*07:02 [5]): 4.66

Sequence: ATAQNRRAL
- pKd (HLA-C*14:02; [16]): 6.56
- pKd (HLA-B*51:01; [16]): ≤ 4.70
- pKd (HLA-B*07:02 [9]; [16]): 7.64

Sequence: SVAMCRTPF
- pKd (HLA-B*51:01; source organism: Yellow fever virus 17D): ≤ 4.70
- pKd (HLA-B*15:01 [13]): 7.49
